According to doi:10.1101/2021.03.09.434456 (bioRxiv, 2021):

Key:
crystal structure = molecular target: the molecule itself; experiment: crystal structure
AUC + SEC = molecular target: the molecule itself; experiment: AUC + SEC
AUC = molecular target: the molecule itself; experiment: AUC

Protein | binding result (crystal structure) | koff (AUC + SEC) [s⁻¹] | Kd (AUC) [nM] | stoichiometry N (AUC)
mouse Kirrel3 D1 (domain or fragment) VYSFSQQPQDQVVVSGQPVTLLCAIPEYDGFVLWIKDGLALGVGRDLSSYPQYLVVGNHLSGEHHLKILRAELQDDAVYECQAIQAAIRSRPARLTVLVP | binds |  |  | 
mouse Kirrel2 WT ectodomain (domain or fragment, UniProt Q7TSU7 20-507, looked up) SPHFLQQPEDMVVLLGEEARLPCALGAYRGLVQWTKDGLALGGERDLPGWSRYWISGNSASGQHDLHIKPVELEDEASYECQASQAGLRSRPAQLHVMVPPEAPQVLGGPSVSLVAGVPGNLTCRSRGDSRPAPELLWFRDGIRLDGSSFHQTTLKDKATGTVENTLFLTPSSHDDGATLICRARSQALPTGRDTAVTLSLQYPPMVTLSAEPQTVQEGEKVTFLCQATAQPPVTGYRWAKGGSPVLGARGPRLEVVADATFLTEPVSCEVSNAVGSANRSTALEVLYGPILQAKPKSVSVDVGKDASFSCVWRGNPLPRITWTRMGGSQVLSSGPTLRLPSVALEDAGDYVCRAEPRRTGLGGGKAQARLTVNAPPVVTALQPAPAFLRGPARLQCVVFASPAPDSVVWSWDEGFLEAGSLGRFLVEAFPAPEVEGGQGPGLISVLHISGTQESDFTTGFNCSARNRLGEGRVQIHLGRRDLLPTVR |  | > 0.001 | 900 | 2
mouse Kirrel2 D1 (domain or fragment) PHFLQQPEDMVVLLGEEARLPCALGAYRGLVQWTKDGLALGGERDLPGWSRYWISGNSASGQHDLHIKPVELEDEASYECQASQAGLRSRPAQLHVMVP | binds |  |  | 
mouse Kirrel3 WT ectodomain (domain or fragment, UniProt Q8BR86 22-535, looked up) LQKRGCCLVLGYMAKDKFRRMNEGQVYSFSQQPQDQVVVSGQPVTLLCAIPEYDGFVLWIKDGLALGVGRDLSSYPQYLVVGNHLSGEHHLKILRAELQDDAVYECQAIQAAIRSRPARLTVLVPPDDPIILGGPVISLRAGDPLNLTCHADNAKPAASIIWLRKGEVINGATYSKTLLRDGKRESIVSTLFISPGDVENGQSIVCRATNKAIPGGKETSVTIDIQHPPLVNLSVEPQPVLEDNIVTFHCSAKANPAVTQYRWAKRGHIIKEASGELYRTTVDYTYFSEPVSCEVTNALGSTNLSRTVDVYFGPRMTSEPQSLLVDLGSDAVFSCAWIGNPSLTIVWMKRGSGVVLSNEKTLTLKSVRQEDAGKYVCRAVVPRVGAGEREVTLTVNGPPIISSTQTQHALHGEKGQIKCFIRSTPPPDRIAWSWKENVLESGTSGRYTVETVNTEEGVISTLTISNIVRADFQTIYNCTAWNSFGSDTEIIRLKEQGSEMKSGAGLEAESVPMA |  | > 0.001 | 210 | 2
